As a reminder, the Kd is the concentration at which binding is half-saturated. What is called kon is the rate constant with which the complex forms.

The record followed here is US8034769.

Assay [1] addresses CD4 (UniProt P01730). As to the kind of experiment: SPR, BIACORE 2000, CD4 immobilized on C1 chip. (In general: SPR reads the build-up and loss of mass on a sensor chip optically.)
In assay [2] the target is HIV-GP120 (HIV-1). Nature of the assay: SPR, BIACORE 2000, HIV-GP120 immobilized on C1 chip.

Chain of oxidized antithrombin III (P01008 33-464): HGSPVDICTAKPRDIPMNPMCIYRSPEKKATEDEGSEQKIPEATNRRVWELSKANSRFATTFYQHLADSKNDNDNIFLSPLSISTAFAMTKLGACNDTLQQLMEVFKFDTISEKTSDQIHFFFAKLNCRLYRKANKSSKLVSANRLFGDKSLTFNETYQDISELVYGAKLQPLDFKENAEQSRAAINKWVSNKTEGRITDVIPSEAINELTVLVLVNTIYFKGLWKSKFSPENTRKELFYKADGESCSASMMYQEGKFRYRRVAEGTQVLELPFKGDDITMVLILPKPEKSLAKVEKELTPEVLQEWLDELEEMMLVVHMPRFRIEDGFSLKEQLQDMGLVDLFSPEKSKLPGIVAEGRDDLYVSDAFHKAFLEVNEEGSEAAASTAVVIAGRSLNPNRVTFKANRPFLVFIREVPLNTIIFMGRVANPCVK

In assay [1], oxidized antithrombin III came in with a Kd of 1.63 nM and an on-rate constant (kon) of 713000 M⁻¹ s⁻¹. In assay [2], this substance yielded a Kd of 0.701 nM and an association rate constant (kon) of 638000 M⁻¹ s⁻¹.
